Stoichiometry N data for one substance are collected here from paper PMC3741172.

The target in this assay is Reelin from frontal cortex of non-demented (ND) subjects (human (endogenous in frontal cortex)) (UniProt P78509). The assay is described as follows: native gel or EMSA; blue native-PAGE of human frontal cortex extracts in 25 mM Bis-Tris pH 7.0, 0.5% DDM, 20% glycerol; samples not boiled; anti-Reelin immunoblot.

As to “Reelin from frontal cortex of non-demented (ND) subjects (from UniProt P78509 26-3460) (natural protein)”, the stoichiometry N was determined as 2.

Usually stoichiometry N stands for the number of molecules, sites or subunits per partner or assembly.
